PMC5182059
Changes are numbered by the printed parent chain. Names and notes keep the numbering of the source.

B1: Ric-8A (1-491) P466A (domain or fragment)
chain: MEPRAVADALETGEEDAVTEALRSFNREHSQSFTFDDAQQEDRKRLAKLLVSVLEQGLSPKHRVTWLQTIRILSRDRSCLDSFASRQSLHALACYADIAISEEPIPQPPDMDVLLESLKCLCNLVLSSPTAQMLAAEARLVVRLAERVGLYRKRSYPHEVQFFDLRLLFLLTALRTDVRQQLFQELHGVRLLTDALELTLGVAPKENPLVILPAQETERAMEILKVLFNITYDSVKREVDEEDAALYRYLGTLLRHCVMADAAGDRTEEFHGHTVNLLGNLPLKCLDVLLALELHEGSLEFMGVNMDVINALLAFLEKRLHQTHRLKECVAPVLSVLTECARMHRPARKFLKAQVLPPLRDVRTRPEVGDLLRNKLVRLMTHLDTDVKRVAAEFLFVLCSESVPRFIKYTGYGNAAGLLAARGLMAGGRPEGQYSEDEDTDTEEYREAKASINPVTGRVEEKPPNAMEGMTEEQKEHEAMKLVNMFDKLSR
B2: Ric-8A (1-491) T456A (domain or fragment)
chain: B1 chain with T456A, A466P
B3: Ric-8A (1-491) P454A (domain or fragment)
chain: B1 chain with P454A, A466P
B4: Ric-8A (1-491) M467A (domain or fragment)
chain: B1 chain with A466P, M467A
B5: Ric-8A (1-491) E468A (domain or fragment)
chain: B1 chain with A466P, E468A
B6: Ric-8A (1-491) G469A (domain or fragment)
chain: B1 chain with A466P, G469A
B7: Ric-8A (1-491) V455A (domain or fragment)
chain: B1 chain with V455A, A466P
B8: (1-452)Ric-8A truncation mutant (domain or fragment)
chain: MEPRAVADALETGEEDAVTEALRSFNREHSQSFTFDDAQQEDRKRLAKLLVSVLEQGLSPKHRVTWLQTIRILSRDRSCLDSFASRQSLHALACYADIAISEEPIPQPPDMDVLLESLKCLCNLVLSSPTAQMLAAEARLVVRLAERVGLYRKRSYPHEVQFFDLRLLFLLTALRTDVRQQLFQELHGVRLLTDALELTLGVAPKENPLVILPAQETERAMEILKVLFNITYDSVKREVDEEDAALYRYLGTLLRHCVMADAAGDRTEEFHGHTVNLLGNLPLKCLDVLLALELHEGSLEFMGVNMDVINALLAFLEKRLHQTHRLKECVAPVLSVLTECARMHRPARKFLKAQVLPPLRDVRTRPEVGDLLRNKLVRLMTHLDTDVKRVAAEFLFVLCSESVPRFIKYTGYGNAAGLLAARGLMAGGRPEGQYSEDEDTDTEEYREAKASI

Each binder was assayed against myristoylated Gαi1 harboring a hexahistidine tag in the helical domain (rat) (UniProt P10824).
UniProt P10824, sequence (P10824 whole entry, the tested form may be a part): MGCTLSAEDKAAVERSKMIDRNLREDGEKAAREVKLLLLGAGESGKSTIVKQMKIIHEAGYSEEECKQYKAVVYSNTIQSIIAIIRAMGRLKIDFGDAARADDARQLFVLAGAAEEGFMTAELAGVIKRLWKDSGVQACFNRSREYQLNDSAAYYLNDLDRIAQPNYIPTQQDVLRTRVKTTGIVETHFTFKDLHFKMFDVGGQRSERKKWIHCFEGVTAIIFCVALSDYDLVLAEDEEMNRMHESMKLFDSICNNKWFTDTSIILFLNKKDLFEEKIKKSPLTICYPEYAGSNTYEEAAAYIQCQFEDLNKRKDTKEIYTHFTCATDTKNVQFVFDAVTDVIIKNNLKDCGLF

Row | Binder | v1: initial velocity of GDP to GTPγS exchange at Gαi1•GDP (2 μM) on adding GTPγS (10 μM) and Ric-8A (2 μM), tryptophan fluorescence, 25°C [µM/min] | v2: initial rate of GTPγS binding to pre-formed Gαi1:Ric-8A (2 μM each, incubated 5 min before 10 μM GTPγS), with release of Ric-8A, tryptophan fluorescence, 25°C [µM/min]
1 | B1 | 0.47 | 0.34
2 | B2 | 0.59 | 0.24
3 | B3 | 2.88 | 5.39
4 | B4 | 2.17 | 4.57
5 | B5 | 3.82 | 6.23
6 | B6 | 0.63 | 0.26
7 | B7 | 0.82 | 0.25
8 | B8 | 0.86 | 0.39
